# Experimental data: US20120171118A1, “TREATMENT OF MENINGEAL AND NEURAL DISEASES” (THE GENERAL HOSPITAL CORPORATION, priority 2009, published 2012)
# B1: arylsulfatase A: human recombinant enzyme labeled with 124I (protein, UniProt P15289 19-507, looked up)
# Arylsulfatase A: RPPNIVLIFADDLGYGDLGCYGHPSSTTPNLDQLAAGGLRFTDFYVPVSLCTPSRAALLTGRLPVRMGMYPGVLVPSSRGGLPLEEVTVAEVLAARGYLTGMAGKWHLGVGPEGAFLPPHQGFHRFLGIPYSHDQGPCQNLTCFPPATPCDGGCDQGLVPIPLLANLSVEAQPPWLPGLEARYMAFAHDLMADAQRQDRPFFLYYASHHTHYPQFSGQSFAERSGRGPFGDSLMELDAAVGTLMTAIGDLGLLEETLVIFTADNGPETMRMSRGGCSGLLRCGKGTTYEGGVREPALAFWPGHIAPGVTHELASSLDLLPTLAALAGAPLPNVTLDGFDLSPLLLGTGKSPRQSLFFYPSYPDEVRGVFAVRTGKYKAHFFTQGSAHSDTTADPACHASSSLTAHEPPLLYDLSKDPGENYNLLGGVAGATPEVLQALKQLQLLKAQLDAAVTFGPSQVARGEDPALQICCHPGCTPRPACCHCPDPHA
# modifications: 124I label
# notes: human recombinant enzyme labeled with 124I
# B2: idursulfase: human recombinant enzyme labeled with 124I (protein, UniProt P22304 34-455; P22304 456-550, looked up)
# Iduronate 2-sulfatase 42 kDa …: TDALNVLLIIVDDLRPSLGCYGDKLVRSPNIDQLASHSLLFQNAFAQQAVCAPSRVSFLTGRRPDTTRLYDFNSYWRVHAGNFSTIPQYFKENGYVTMSVGKVFHPGISSNHTDDSPYSWSFPPYHPSSEKYENTKTCRGPDGELHANLLCPVDVLDVPEGTLPDKQSTEQAIQLLEKMKTSASPFFLAVGYHKPHIPFRYPKEFQKLYPLENITLAPDPEVPDGLPPVAYNPWMDIRQREDVQALNISVPYGPIPVDFQRKIRQSYFASVSYLDTQVGRLLSALDDLQLANSTIIAFTSDHGWALGEHGEWAKYSNFDVATHVPLIFYVPGRTASLPEAGEKLFPYLDPFDSASQLMEPGRQSMDLVELVSLFPTLAGLAGLQVPPRCPVPSFHVELCREGKNLLKHFRFRDLEEDPYLPG
# Iduronate 2-sulfatase 14 kDa …: NPRELIAYSQYPRPSDIPQWNSDKPSLKDIKIMGYSIRTIDYRYTVWVGFNPDEFLANFSDIHAGELYFVDSDPLQDHNMYNDSQGGDLFQLLMP
# modifications: 124I label
# notes: as for B1
# B3: sulfamidase: human recombinant enzyme labeled with 124I (protein, UniProt P51688 21-502, looked up)
# N-sulphoglucosamine …: RPRNALLLLADDGGFESGAYNNSAIATPHLDALARRSLLFRNAFTSVSSCSPSRASLLTGLPQHQNGMYGLHQDVHHFNSFDKVRSLPLLLSQAGVRTGIIGKKHVGPETVYPFDFAYTEENGSVLQVGRNITRIKLLVRKFLQTQDDRPFFLYVAFHDPHRCGHSQPQYGTFCEKFGNGESGMGRIPDWTPQAYDPLDVLVPYFVPNTPAARADLAAQYTTVGRMDQGVGLVLQELRDAGVLNDTLVIFTSDNGIPFPSGRTNLYWPGTAEPLLVSSPEHPKRWGQVSEAYVSLLDLTPTILDWFSIPYPSYAIFGSKTIHLTGRSLLPALEAEPLWATVFGSQSHHEVTMSYPMRSVQHRHFRLVHNLNFKMPFPIDQDFYVSPTFQDLLNRTTAGQPTGWYKDLRHYYYRARWELYDRSRDPHETQNLATDPRFAQLLEMLRDQLAKWQWETHDPWVCAPDGVLEEKLSPQCQPLHNEL
# modifications: 124I label
# notes: as for B1
# Assays:
# [1] = neoplastic carcinoma patients; cited from earlier work
# [2] = humans, cited from earlier work
# [3] = systemically administered; cited from earlier work
# [4] = assay type: physicochemical
# Text: Based on the experimental data on CPT release from PHF-CPT, the action of the conjugate after intrathecal administration will be localized in the target compartment (leptomeningeal tissues contacting with CSF). The kinetics of CPT release includes two phases: (1) non-enzymatic release of a highly hydrophobic prodrug camptothecin succinimidoglycinate (CPT-SI), and (2) release of active CPT from CPT-SI (Scheme 6). […] Thus, it is expected that CPT-SI will be deposited in the leptomeningeal space and will redistribute only locally along cell membranes and other hydrophobic compartments. […] A similar distribution pattern in the meningeal compartment is expected, with CPT-SI penetration from CSF into the cancer cell formations through several cell layers.
# [5] = assay type: in vitro ADME; conditions: rat, plasma
# Method: The mechanism of the second stage hydrolysis in vivo, which results in the active CPT release, may include spontaneous or enzymatic hydrolysis as well as, e.g., aminolysis. In vitro, the half-life of (N-succinamido)-glycyl linkage in the CPT prodrug (VI) in rat plasma was over 20 hours.
# [6] = PET imaging of 124I-labeled human recombinant enzymes after IV and IT administration; assay type: in vivo, rats
# Method: Imaging was performed using MicroPET P4. Spatial resolution (full width at half maximum, FWHM) was studied using a line ^124I source (Ø=0.19 mm) in water. A 51×127 mm cylindrical phantom was used to evaluate the count-rate performance and coincidence detection. Studies in rats and cynomolgus monkeys were carried out using five human recombinant enzymes. The proteins were labeled with ^124I, at up to 5 mCi/mg.
# Next, three human recombinant enzymes, idursulfase, arylsulfatase A, and sulfamidase were labeled with ^124I and administered at 1 and 10 mg/kg via two routes, IV and IT. Dynamic imaging data and multiple static images were acquired over 8 days, and processed to determine the principal PK parameters. FITC labeled sulfamidase was also utilized to investigate brain cryosections by photoimaging.
molecule,measurement,setting,value
CC[C@@]1(O)C(=O)OCc2c1cc1n(c2=O)Cc2cc3c(CN(C)C)c(O)ccc3nc2-1 [topotecan],clinical outcome,[1],not promising
indium complex of diethylenetriaminepentaacetic acid [In-DTPA],time to reach brain ventricles,[2]; after intralumbar injection,ca. 5 hours
same,half-life in CSF,[2],13.5 ± 4.5 h
CN(Cc1cnc2nc(N)nc(N)c2n1)c1ccc(C(=O)N[C@@H](CCC(=O)O)C(=O)O)cc1 [methotrexate],CSF level relative to the systemic level,[3],1.7%
camptothecin succinimidoglycinate [CPT-SI],solubility in water,[4],practically insoluble in water
same,half-life of (N-succinamido)-glycyl linkage,[5],over 20 hours
B1,initial label content in the brain region,"[6]; rat, in vivo",70 % of the injected dose/g
same,initial label content in the brain region,"[6]; rat, in vivo, iv",0.15 % of the injected dose/g
B2,half-life of clearance from both the brain and spinal cord,"[6]; rat, in vivo",ca. 7 h
same,initial label content in the brain region,"[6]; rat, in vivo",45 % of the injected dose/g
same,initial label content in the brain region,"[6]; rat, in vivo, iv",0.20 % of the injected dose/g
B3,initial label content in the brain region,"[6]; after IT administration, 124I label, PET",35 % of the injected dose/g
same,initial label content in the brain region,"[6]; after IV administration, 124I label, PET",0.05 % of the injected dose/g
